The values below are quoted from earlier work in publication PMC12564133.

The target of the data set is BKCa channel (UniProt Q12791).
UniProt Q12791, sequence (Q12791 whole entry): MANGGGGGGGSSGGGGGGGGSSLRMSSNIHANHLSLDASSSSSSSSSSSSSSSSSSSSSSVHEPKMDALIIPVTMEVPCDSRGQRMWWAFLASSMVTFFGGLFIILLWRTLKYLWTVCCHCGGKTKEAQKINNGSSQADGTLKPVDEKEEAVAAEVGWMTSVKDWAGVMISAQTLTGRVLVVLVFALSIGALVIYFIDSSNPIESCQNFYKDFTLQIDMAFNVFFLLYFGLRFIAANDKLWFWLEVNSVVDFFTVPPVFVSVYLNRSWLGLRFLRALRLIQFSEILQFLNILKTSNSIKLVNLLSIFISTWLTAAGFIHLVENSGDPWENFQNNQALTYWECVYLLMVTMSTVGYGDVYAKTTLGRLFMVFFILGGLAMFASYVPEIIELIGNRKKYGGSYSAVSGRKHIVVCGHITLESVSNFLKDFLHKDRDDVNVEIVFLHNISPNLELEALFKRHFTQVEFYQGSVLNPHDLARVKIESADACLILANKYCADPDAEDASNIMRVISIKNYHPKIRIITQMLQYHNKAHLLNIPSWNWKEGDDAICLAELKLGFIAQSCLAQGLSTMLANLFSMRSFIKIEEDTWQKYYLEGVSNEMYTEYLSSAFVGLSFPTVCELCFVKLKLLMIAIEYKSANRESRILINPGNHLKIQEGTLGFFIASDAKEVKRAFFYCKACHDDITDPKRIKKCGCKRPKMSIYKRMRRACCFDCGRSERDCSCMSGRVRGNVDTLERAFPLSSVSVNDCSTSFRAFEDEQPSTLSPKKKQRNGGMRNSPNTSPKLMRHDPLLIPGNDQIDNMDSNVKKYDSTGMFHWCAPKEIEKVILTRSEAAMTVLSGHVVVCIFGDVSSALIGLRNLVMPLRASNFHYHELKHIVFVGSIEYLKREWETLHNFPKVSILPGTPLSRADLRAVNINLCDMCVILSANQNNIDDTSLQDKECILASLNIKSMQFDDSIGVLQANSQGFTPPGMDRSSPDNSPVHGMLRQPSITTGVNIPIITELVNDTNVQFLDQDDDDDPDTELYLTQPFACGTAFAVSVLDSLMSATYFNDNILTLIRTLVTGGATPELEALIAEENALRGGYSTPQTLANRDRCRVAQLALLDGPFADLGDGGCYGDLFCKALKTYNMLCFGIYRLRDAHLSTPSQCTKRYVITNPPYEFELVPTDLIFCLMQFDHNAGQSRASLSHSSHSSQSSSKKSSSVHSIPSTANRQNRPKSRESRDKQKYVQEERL

As for “Iberiotoxin (IbTX) (from UniProt P24663)”, the equilibrium dissociation constant (Kd) (commonly the concentration at which binding is half-saturated) was 1.16 nM.
